Measurements as given in the Human Domainome abundance scans (Beltran et al. 2025).
± gives the uncertainty stated by the source.

B1: Retinoic acid receptor beta, residues 85 to 161; numbered along this chain, P10826 (parent)
chain: YKPCFVCQDKSSGYHYGVSACEGCKGFFRRSIQKNMIYTCHRDKNCVINKVTRNRCQYCRLQKCFEVGMSKESVRND

Variants of: B1
Assay: abundance fitness (aPCA) (normalised: wild type 0, dead -1); higher = more abundant; growth selection in yeast, the domain comes from the species named
Settings: Homo sapiens

| Variant | abundance fitness |
| --- | --- |
| C59W | -0.823 ± 0.21 |
| C59F | -0.872 ± 0.26 |
| C59I | -0.494 ± 0.23 |
| C59E | -0.916 ± 0.23 |
| V67S | -0.059 ± 0.052 |
| V67H | -0.354 ± 0.24 |
| V67Y | -0.645 ± 0.2 |
| V67W | -0.636 ± 0.16 |
| V67L | -0.084 ± 0.043 |
| H15E | -0.129 ± 0.085 |
| H15M | -0.006 ± 0.076 |
| H15T | -0.046 ± 0.058 |
| H15N | -0.015 ± 0.093 |
| S70L | 0.071 ± 0.053 |
| S70E | 0.039 ± 0.052 |
| S70H | 0.022 ± 0.099 |
| E66C | -0.153 ± 0.083 |
| E66R | 0.011 ± 0.034 |
| E66A | -0.105 ± 0.057 |
| E66P | -0.595 ± 0.13 |
| E66W | -0.139 ± 0.054 |
| R60S | -0.583 ± 0.08 |
| R60K | -0.039 ± 0.052 |
| R60W | 0.114 ± 0.044 |

| Variant | abundance fitness |
| --- | --- |
| H41R | -0.101 ± 0.036 |
| H41L | -0.077 ± 0.038 |
| H41C | -0.157 ± 0.066 |
| H41E | 0.131 ± 0.037 |
| H41K | -0.103 ± 0.073 |
| H41Q | 0.029 ± 0.061 |
| V47T | 0.056 ± 0.038 |
| V47A | 0.058 ± 0.042 |
| V47S | 0.024 ± 0.033 |
| V47I | -0.082 ± 0.044 |
| Y38H | -0.414 ± 0.13 |
| Y38E | -0.472 ± 0.077 |
| Y38A | -0.59 ± 0.083 |
| Y38C | -0.899 ± 0.26 |
| R55H | 0.205 ± 0.096 |
| R55I | 0.155 ± 0.069 |
| R55W | 0.149 ± 0.048 |
| R55A | 0.18 ± 0.043 |
| R55T | 0.239 ± 0.048 |
| R55M | 0.25 ± 0.045 |
| G68C | -0.698 ± 0.16 |
| G68P | -0.738 ± 0.17 |
| S73R | 0.016 ± 0.034 |
| C64R | -0.732 ± 0.059 |

| Variant | abundance fitness |
| --- | --- |
| C64G | -0.658 ± 0.045 |
| C64Y | -1.17 ± 0.34 |
| D9F | -0.65 ± 0.21 |
| D9W | -0.529 ± 0.083 |
| Q57D | 0.353 ± 0.063 |
| Q57E | 0.268 ± 0.045 |
| Q57Y | 0.163 ± 0.07 |
| N35C | 0.024 ± 0.08 |
| N35L | -0.235 ± 0.06 |
| Y58E | -0.214 ± 0.063 |
| Y58C | 0.046 ± 0.085 |
| Y58D | -0.131 ± 0.077 |
| Y58V | -0.679 ± 0.1 |
| Y58T | -0.501 ± 0.16 |
| Y58P | -1.13 ± 0.32 |
| Y58K | -0.147 ± 0.074 |
| K63N | -0.519 ± 0.2 |
| K63T | -0.11 ± 0.055 |
| K63D | -0.413 ± 0.12 |
| K63I | -0.321 ± 0.13 |
| K63W | -0.772 ± 0.095 |
| K63S | -0.443 ± 0.072 |
| K10R | 0.034 ± 0.04 |
| K10D | 0.112 ± 0.082 |

| Variant | abundance fitness |
| --- | --- |
| K10V | 0.007 ± 0.042 |
| K10I | 0.154 ± 0.078 |
| Y1R | -0.239 ± 0.065 |
| Y1T | -0.109 ± 0.11 |
| Y1I | -0.01 ± 0.13 |
| Y1L | -0.086 ± 0.067 |
| Y1E | -0.109 ± 0.11 |
| V74S | -0.035 ± 0.048 |
| V74G | -0.081 ± 0.041 |
| V74T | -0.012 ± 0.064 |
| V74P | -0.068 ± 0.078 |
| V74L | -0.018 ± 0.041 |
| V74Q | -0.012 ± 0.066 |
| V74W | -0.14 ± 0.052 |
| V74I | 0.036 ± 0.062 |
| C24R | -0.793 ± 0.094 |
| C24W | -0.955 ± 0.16 |
| C24N | -1.07 ± 0.38 |
| C24H | -0.896 ± 0.38 |
| C24S | -0.793 ± 0.12 |
| C24Y | -0.309 ± 0.14 |
| V6E | -1.02 ± 0.23 |
| V6W | -0.795 ± 0.16 |
| V6F | -0.374 ± 0.15 |

| Variant | abundance fitness |
| --- | --- |
| V6A | -0.711 ± 0.1 |
| V6I | -0.13 ± 0.064 |
| V6C | -0.995 ± 0.27 |
| P3Y | 0.174 ± 0.11 |
| P3W | -0.223 ± 0.064 |
| P3N | 0.162 ± 0.092 |
| I37Y | -0.345 ± 0.16 |
| I37S | -0.085 ± 0.057 |
| I37E | 0.046 ± 0.048 |
| R42D | -0.047 ± 0.074 |
| R42Q | 0.121 ± 0.062 |
| R42Y | 0.033 ± 0.09 |
| R42K | 0.067 ± 0.064 |
| R42A | 0.203 ± 0.038 |
| R42T | -0.016 ± 0.069 |
| G17S | -0.219 ± 0.052 |
| G17N | -0.091 ± 0.1 |
| G17K | -0.138 ± 0.061 |
| G17R | -0.288 ± 0.05 |
| G17L | -0.368 ± 0.058 |
| G17C | -0.24 ± 0.1 |
| G17V | -0.481 ± 0.064 |
| G17Q | -0.311 ± 0.073 |
| G17A | -0.278 ± 0.054 |

| Variant | abundance fitness |
| --- | --- |
| G17W | -0.603 ± 0.11 |
| G17E | -0.08 ± 0.057 |
| G26F | -0.193 ± 0.14 |
| G26R | -0.481 ± 0.052 |
| G26H | -0.109 ± 0.12 |
| G26T | -0.024 ± 0.057 |
| G26W | -0.862 ± 0.1 |
| Y14R | -0.203 ± 0.057 |
| Y14E | -0.038 ± 0.074 |
| Y14W | 0.061 ± 0.087 |
| Y14L | 0.006 ± 0.045 |
| Y14I | 0.054 ± 0.065 |
| I48F | -0.078 ± 0.055 |
| I48C | -0.72 ± 0.19 |
| I48G | -0.605 ± 0.11 |
| K2F | -0.266 ± 0.29 |
| K2S | -0.068 ± 0.057 |
| K2E | -0.285 ± 0.081 |
| K2R | -0.282 ± 0.057 |
| K2I | -0.144 ± 0.093 |
| K2D | 0.017 ± 0.088 |
| K2V | -0.104 ± 0.052 |
| K2Y | -0.1 ± 0.092 |
| K2H | 0.091 ± 0.11 |

| Variant | abundance fitness |
| --- | --- |
| K71A | -0.027 ± 0.053 |
| K71W | -0.139 ± 0.045 |
| K71V | -0.151 ± 0.041 |
| N54W | -0.088 ± 0.048 |
| N54R | 0.036 ± 0.039 |
| N54V | 0.11 ± 0.041 |
| N54S | 0.136 ± 0.042 |
| N54F | 0.089 ± 0.08 |
| G23H | -0.114 ± 0.12 |
| G23V | -0.149 ± 0.043 |
| G23C | 0.108 ± 0.056 |
| G23W | -0.138 ± 0.045 |
| C7V | -0.879 ± 0.12 |
| C7L | -0.832 ± 0.11 |
| C7M | -0.753 ± 0.14 |
| C7Y | -0.609 ± 0.16 |
| C7I | -0.806 ± 0.25 |
| K44H | -0.322 ± 0.14 |
| K44V | -0.356 ± 0.057 |
| K44T | -0.043 ± 0.069 |
| K44I | -0.009 ± 0.13 |
| K44W | -0.208 ± 0.051 |
| K44F | -0.283 ± 0.087 |
